The text below walks through data of US20030013634A1, “Synthesis of small particles” (priority 2000, published 2003).

A short description of series [1]: Median particle size by laser diffraction. In kind it is physicochemical. The following applies: for median particle size: laser diffraction, agglomerated insulin powder, Example 5. The source says: These fine insulin particles may aggregate to form larger particles due to intermolecular interaction between the molecules. […] Insulin precipitated as nano-sized particles, was also agglomerated to micron-sized particles.

The nature of series [2]: Aerosol characterisation by impaction (Marple-Miller / Cascade Impactor). The class given is physicochemical. The method, then:
In order to determine the aerosol performance of the protein particles, in vitro testing of the particles was assessed using a 5 stage Marple-Miller Impactor (Model 160, MSP Corporation, USA) with cut-off diameters of […]. The Marple-Miller impactor consisted of a stainless steel inlet throat, five impaction stages and an integral filter stage. The stages were previously coated with propylene glycol/methanol (50:50) to prevent particle bounce, thus minimising the probability of carry over of coarse particles onto lower stages.
A mass of 10-20 mg of insulin was weighed into a gelatin capsule (size 3, Park Davis, Australia) and was immediately dispersed by a powder inhaler device, Dinkihaler (Aventis, Frankfurt, Germany) into the Marple Miller Impactor at 60 L/min using a vacuum source (ERWEKA GMBH, Germany).
The fraction of the protein recovered in each stage was calculated by measuring the absorbance of the protein solution against the absorbance of a standard 1% solution of insulin.

Series [3] in a line: Biochemical integrity by size exclusion chromatography (monomer content). In kind it is physicochemical. The following applies: for biological activity as indicated by the in vitro test for monomer content: after processing with the anti-solvent. The method, then:
A protein-Pak 125 column (Waters, USA) was used for insulin. The mobile phase consisted of 50 mM sodium phosphate buffer at pH 3 with 300 mM sodium chloride. The powder samples were dissolved to prepare 1 mg/mL solution in deionised water by gentle shaking for 10 minutes to have complete dissolution. The supernatant was filtered through […] membrane filter and then injected into the HPLC column. […] The software Millennium 3.5 was used in the quantification of the monomer content.
Background: Size exclusion chromatography separates by hydrodynamic size, large species first.

Series [4] in a line: Insulin deamidation testing by reverse phase HPLC. The class given is physicochemical. The following applies: 2 mg/mL, after particle formation. The method, then:
In order to determine the percentage of insulin that was deamidated by the process, a test of the insulin was performed using high performance liquid chromatography (HPLC). A reverse phase column (Symmetry® C18, 5 μm packing, 4.6 mm×150 mm) was used to separate the deamidated from the non-deamidated insulin. The gradient method was used with eluents 0.1% trifluoroacetic acid/acetonitrile 26% to 33% and the flow rate of 1 mL/min. The absorbance was monitored at 280 nm.
The percentage of deamido insulin was determined by comparing the peak area of the degradation product to the area of standard insulin containing the same concentration of insulin (2 mg/mL).

Series [5] in a line: Particle size and morphology by SEM. The class given is physicochemical. The source says: These fine insulin particles may aggregate to form larger particles due to intermolecular interaction between the molecules.
The conditions of series [6]: values reported in the literature; cited from earlier work.

On to “insulin: Low endotoxin bovine insulin (Sigma), precipitated as fine particles from aqueous solution by the ASES process”, for which the median particle size was 5 μm in series [1] and “about 5 μm” in series [1] (listed as Insulin). Also, the “FPM (%) fine particle mass, mass fraction of particles below 5 μm” value in series [2] (2-stage process) is given as 45%; in series [2] (single stage production unit), 20%. Moreover, the “fine particle fraction (% <5 μm)” value in series [2] (Marple Miller Impactor, Dinkihaler, 60 L/min) was “at least 42%”. In series [3] (1 mg/mL in deionised water, after particle formation), this substance had a monomer content of 99.5%. Moreover, the “percentage of deamido insulin” value in series [4] is given as 3.0%. Besides, the “size of nano-sized particles” value in series [5] (modified dual vessel apparatus (FIG. 10b)) and in series [5] (single-stage apparatus (FIG. 9b)) was 50-500 nm each time. Also, in series [6], the “maximum FPM obtained by other methods” value was at most 10%.

Ethane-ethanol: the “D(0.5, V) median particle size based on volume” value in series [1] (2-stage process) is recorded as 4.8 +/− 0.4; in series [1] (single stage production unit), 12.8 +/− 1.0. In addition, the “FPM (%) fine particle mass, mass fraction of particles below 5 μm” value is on record as 43.5% in series [2] (2-stage process) and 20.0% in series [2] (single stage production unit). Moreover, the “increase in the amount of material less than 5 μm aerodynamic diameter” value in series [2] (2-stage versus single stage process) was determined as 100%. The “fraction of particles with a size >10 μm” value in series [2] (aerodynamic particle size distribution, FIG. 4) was “around 45%”. Also, the “biological activity as indicated by the in vitro test for monomer content” value in series [3] is “retention of biological activity”.

Turning to “CO2-ethanol: Insulin particles precipitated using carbon dioxide modified with 20 mol % ethanol as anti-solvent (comparison)”, the “D(0.5, V) median particle size based on volume” value in series [1] (2-stage process) is 8.2 +/− 0.6; in series [1] (single stage production unit), 11.8 +/− 1.6. For the same substance, in series [2] (2-stage process), the “FPM (%) fine particle mass, mass fraction of particles below 5 μm” value was determined as 21.9%. Besides, the “biological activity as indicated by the in vitro test for monomer content” value in series [3] was “significant deactivation”.
